Measurements reported in patent publication US20240034762A1 (YALE UNIVERSITY, published 2024).

Biological target: T1, soluble extracellular domain of human α-Klotho (aa 1-980) fused to a 6xHis tag (human, UniProt Q9UEF7 34-980)
T1 construct: Secreted from HEK293 EBNA cells; also called sKLA; soluble α-Klotho
T1 sequence: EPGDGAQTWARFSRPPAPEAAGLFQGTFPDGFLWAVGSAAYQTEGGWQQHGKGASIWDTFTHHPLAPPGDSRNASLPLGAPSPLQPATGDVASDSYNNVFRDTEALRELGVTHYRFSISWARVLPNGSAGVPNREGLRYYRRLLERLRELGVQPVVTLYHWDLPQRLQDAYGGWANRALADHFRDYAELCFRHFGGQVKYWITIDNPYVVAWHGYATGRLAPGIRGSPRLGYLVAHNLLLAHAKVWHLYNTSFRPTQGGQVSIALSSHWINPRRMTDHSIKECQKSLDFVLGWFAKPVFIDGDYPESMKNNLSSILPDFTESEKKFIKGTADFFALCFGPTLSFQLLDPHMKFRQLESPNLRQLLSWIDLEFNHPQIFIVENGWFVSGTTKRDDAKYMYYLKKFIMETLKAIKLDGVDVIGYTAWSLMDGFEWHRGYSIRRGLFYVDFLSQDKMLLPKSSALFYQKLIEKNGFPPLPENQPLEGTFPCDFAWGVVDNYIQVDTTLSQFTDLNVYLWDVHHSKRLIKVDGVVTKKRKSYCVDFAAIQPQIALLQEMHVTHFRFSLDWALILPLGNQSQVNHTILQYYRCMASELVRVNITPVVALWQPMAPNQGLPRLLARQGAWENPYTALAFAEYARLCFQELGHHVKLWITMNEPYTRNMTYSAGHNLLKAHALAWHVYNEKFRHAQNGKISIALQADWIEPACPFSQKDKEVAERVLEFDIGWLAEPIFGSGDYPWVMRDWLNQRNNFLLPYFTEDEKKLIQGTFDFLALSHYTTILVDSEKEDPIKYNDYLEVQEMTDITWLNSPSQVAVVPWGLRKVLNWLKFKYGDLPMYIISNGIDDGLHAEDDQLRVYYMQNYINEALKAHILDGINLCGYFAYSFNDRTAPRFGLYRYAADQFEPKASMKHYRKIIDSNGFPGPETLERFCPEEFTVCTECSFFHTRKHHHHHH
Test: BLI, FGF23 variant on the sensor, sKLA as analyte

B1: human FGF23 D188A/D222A double mutant (ligand)
chain: DYKDDDDKYPNASPLLGSSWGGLIHLYTATARNSYHLQIHKNGHVDGAPHQTIYSALMIRSEDAGFVVITGVMSRRYLCMDFRGNIFGSHYFDPENCRFQHQTLENGYDVYHSPQYHFLVSLGAAKAAFLPGMNPPPYSQFLSRRNEIPLIHFNTPIPRQHTQSAEDDSERAPLNVLKPRARMTPAPASCSQELPSAEDNSPMASAPLGVVRGGRVNTHAGGTGPEGCRPFAKFI
notes: also called D188A/D222A double mutations
binding result: no binding (tested: sKLA 6.25 nM to 200 nM)
